Results from paper PMC4031664.

Key:
Experiment in all cases: SPR
[1] = target: N-terminal human PrP fragment (PrP23–145) (human) (UniProt P04156)
[2] = target: N-terminally truncated PrP (PrP89–230) (mouse) (UniProt P04925)
[3] = target: N-terminally truncated human PrP90–231 (human) (UniProt P04156)
[4] = target: full-length PrP (PrP23–231) (mouse) (UniProt P04925)

Quiescin-sulfhydryl oxidase (from UniProt O00391 30-747) (enzyme)
Kd [1]: 3.6 nM | Kd [2]: 312 nM | Kd [3]: 771 nM | Kd [4]: 2 nM
